One block for each binder: values may come before it. Bridges are numbered along the chain shown (N, C = ends). Where no end group is shown, it is not given here.
Key:
[1] = biological target: T1, bovine pancreatic trypsin (bovine, UniProt P00760 24-246); test: isothermal titration calorimetry, 30 °C
T1 construct: It was dialyzed into the ITC buffer and flowed over the chip in SPR
Experimental: Figure 6: FIG. 6 provides an ITC analysis of the interaction between SAP and bovine pancreatic trypsin. SAP was dissolved in 20 mM cacodylate (pH 7.0), 20 mM NaCl at a final concentration of 2 mM. Trypsin was dialyzed into the same buffer and was used in the calorimeter cell at a concentration of 20 µM. No binding is evident throughout the titration. The temperature was maintained at 30° C. Forty injections of 5 µL each were employed with a 240 second re-equilibrium time between injections.
The ability of SAP, SAP-1, and SAP-2 to bind bovine pancreatic trypsin was measured by isothermal titration calorimetry (ITC). […] Under all experimental conditions, there is no detectable binding.

[2] = biological target: T1, bovine pancreatic trypsin; test: ITC, SAP-1 (1 mM) injected into trypsin (20 µM), 293 K
Experimental: Figure 7: FIG. 7 provides an ITC analysis of the interaction between SAP-1 and bovine pancreatic trypsin. SAP-1 was dissolved in 20 mM cacadylate (pH 7.0), 20 mM NaCl at a final concentration of 1 mM. Trypsin was dialyzed into the same buffer and was used in the calorimeter cell at a concentration of 20 µM. The temperature was maintained at 20° C. Forty injections of 5 µL each were employed with a 240 second re-equilibrium time between injections.

[3] = biological target: T1, bovine pancreatic trypsin; test: ITC, SAP-1 injected into trypsin, 303 K
[4] = biological target: T1, bovine pancreatic trypsin; test: ITC, SAP-2 (1.0 mM) injected into trypsin (20 µM), 25 °C (FIG. 8)

T1 sequence (P00760 24-246): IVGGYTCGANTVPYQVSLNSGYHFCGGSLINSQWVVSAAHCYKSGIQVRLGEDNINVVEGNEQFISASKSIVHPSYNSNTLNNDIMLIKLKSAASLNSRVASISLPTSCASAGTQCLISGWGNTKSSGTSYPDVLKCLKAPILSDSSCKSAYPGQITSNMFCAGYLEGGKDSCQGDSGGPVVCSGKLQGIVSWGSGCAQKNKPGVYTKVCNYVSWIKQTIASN

binding result [1]: no binding
B1: SAP (Synthetic Antibody Peptide), parental peptide backbone (designed binder)
chain: MCPSQPTYPGDPGPVEDLIRFYDNLQQWLNCVTAAC
modifications: disulfide 2-31
notes: Re-engineered avian pancreatic polypeptide with no insert; It was expressed in E. coli from pSAPe and purified; also called SAP peptide; SAP molecule

Ka [2]: 1.65e+06 M⁻¹
Stoichiometry [2]: 0.975
ΔH [2]: -109 kJ/mol
ΔS [2]: -11.6 cal mol^-1 K^-1
Ka [3]: 2.4e+06 M⁻¹
Stoichiometry [3]: 0.99
ΔH [3]: -64.4 kJ/mol
ΔS [3]: -21.1 cal mol^-1 K^-1
B2: SAP-1 (SAP backbone with the PYRIRF insert from Bovine Pancreatic Trypsin Inhibitor) (designed binder)
chain: CPSQPTYPGDPPYRIRFGPVEDLIRFYDNLQQWLNCVTAAC
notes: It was expressed in E. coli; In SPR it was coupled to the chip through the C-terminal cysteine thiol

Ka [4]: 640000 M⁻¹
Stoichiometry [4]: 0.995
ΔH [4]: -131 kJ/mol
ΔS [4]: -16.2 cal mol^-1 K^-1
B3: SAP-2 (SAP backbone with the library-selected YKLKY insert) (designed binder)
chain: CPSQPTYPGDPYKLKYGPVEDLIRFYDNLQQWLNCVTAAC
notes: It was expressed in E. coli; In SPR it was coupled to the chip through the C-terminal cysteine thiol; also called recombinant SAP-2

— US6822073 (KIMBERLY CLARK WORLDWIDE, dated 2004)
